Test results reported in the domain aggregation screens of Martell et al. (2025).

Assay: soluble fraction after stress (log2 fold change); higher = more stays soluble; pooled small domains, quantitative proteomics
Conditions: stress: pH 4
Procedure, shortened: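 Values are log2 fold changes, and higher ones mean more of the domain stayed soluble. Each fold change reflects the soluble amount of a domain after acid stress and is taken as a measure of aggregation propensity. The stress was pH 4, applied to pooled custom libraries of small protein domains analysed by high-throughput quantitative proteomics.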

Row | Sequence | soluble fraction (log2)
1 | HMSSADIPFSRFIDDVEAQRVEKVTIDGVNVTGRYRSDGAAFKTIIPSQYDGLVPILRQNKVDITVKDA | 0.41
2 | HMSSAMDMISRDVRNADSISISTTTYSKKIDLYNFDRNGDIEELHSYSAKNDLGILYNDEPI | 0.191
3 | HMSSANIKLDPLERQATQQIINNIKRKYPNATIENLQEVANDAIATMRQPEFSNYTVDKFVSYFLSM | -0.429
4 | HMSSARKVTVRGVRELPGIFMEKAEILDDGVRFFYRGEMEKLIGALQGLPIRDLTITEPDLEEVFLHFY | -1.43
5 | HMSSASETQYELALQAMRDGDNDAALRSLSTALASGFSDWQRIDEEPLLAALANDVRFQVLRSRWK | -0.92
6 | HMSSDLVDYLVKYVAIVDNQEIEIADSKIGTAELGTTVSEVAKTVGNYYPKATVLSVKITGRNQEIVFEY | -1.8
7 | HMSSEPYISLPRGAAHDAYPLSTKAVAAQLGMSEVWLANLRSKGKGPRYVRVGTRVFYSPEDVAQWRRAT | ≥ 0.43
8 | HMSSESIIIKKLIEEFIHNENKYSPLSDEKLSYLLKNKGFSVARRTVAKYRDELGILSTRERKIKI | 0.393
9 | HMSSEYARFFSGNYYEVLGVAKNASYDEIKAAWKKLVKEYHPDLHPQRQEEFTKIIQKINEAYEYFKKMH | -0.201
10 | HMSSFFLIDVSQVRIGMYIQLDVGWMRHPFPVNSFRITNQEQLDTLRSLNLAQVRWSPAKSDL | -1
11 | HMSSFIEAIKQSGTDSLDVIMKNGRVYRYVGIDADRLGYLLEPHQQKLSLEESIGRFYIDYIKGIYEAIE | -1.05
12 | HMSSGNLESLLNKLHNEDYFVRLDAVKALGALGDPGAIDYLIEMLSENGIMRGWVANSLAALGEAQWKKII | -1.44
13 | HMSSHSAEAVRHRIKSMIDHEARDGDVLSDDRIVELLNQAGIDIARRTVAKYREALRIPSSVERKRRLKA | 0.0173
14 | HMSSKRDQFIVLGQEILEKMFKNEGLEFSEKGLLAVMPNFEAESINDIYAKVGEGLISGWDVMKAVYPAY | -0.841
15 | HMSSKSLAALSPQEYRLLPLVAEGKTNKEIASALALSDKTVKNYLANIFSKLGITRRTQAATLYARAL | 0.252
16 | HMSSKYLKIYNDIVGKIDSGIFEANTKLPSESQLMDEYNVSRYTVRKSLNLLEQNGYIEKSKGKGSFVLDM | -0.1
17 | HMSSLQFVTLTLMEGHAWVGREIQELLMPPQMRIALIRRGDSQVIPKGSTILESADELILSAIEYQG | -2.51
18 | HMSSLREQVADALRAHLVSGRMRPGVLYSAPKLAAEFGVSATPVREAMLDLVSEGLVDVVRNKGFRVT | 0.018
19 | HMSSPPNPQLAKRYISYSVDDIARLFGIHRHTVREWIKRGLPVIDQQRPLLVQGADLAEFLRKRRA | 0.162
20 | HMSSPVIQINTRNDGWIIKLLQPAVEKDVLEGYLADVGLKLQSQMMEKILAAPAGTEFHIKRGSNILTE | -0.133
21 | HMSSQADEEALFKLLAANPYSDEQLEEIRIAIGSGIAYKDIIRIADIGNTAERMKQLRLEFTKDTAN | -0.353
22 | HMSSQGSLEKGYSALLDGRLDDAALAYGAALAANPMERDALLGLAYVAHSKGRREEAQALYRKVLR | -0.53
23 | HMSSSTFVGRVAVITIGEARQNSPAEARFKDRHGTTHYVMVEPMEDVVFKQGDKVLLVESAGATFKVIEPA | -0.00194
24 | HMSSTSISFNDFQKYWLSNDIKSFQLREDKMTVQGSLKNGTAYETVVPSERLFQFIGQHPKD | -0.127
25 | HMSSVDLLSERERQVLARISRGMSNEEIAAELAITPRTVRNHLANIYGKIDVHSRAEAVVWARERGIT | -0.152

Row | Sequence | soluble fraction (log2)
26 | HMSSVEQAILETLSKEHSHLTSLQVFEEIRGRLPAVNQSTVYRALERLVEQGVVSVSDMGTHAAVYE | 0.119
27 | HMSSVMMPDLTGESAIVAMERLQQLGLLPKVEEVDSYREPGIVLEQLPRAGEKIKRGRIAILKVSS | -0.131
28 | HMSSVTGMERFLSSGAVKGIGKTMAARIVEHFGTETMTVLESFPERLAEVPGIGAKKAEAIGQSYSEISD | -0.259
29 | HMSSVVARRARIATLVVETSVASQEELGRLLADEGITVTQATLSRDLDALGAVKVLSADGGTRYRIPGQ | -0.45
30 | HMSSVVVARTWTDTTGDFKVEAELLGVEGGLVRLKKEDGTVLSVPIAKLSTADRTFLQENQP | 0.22
31 | HMSSWEDNFSYWIRNVAETLDKDLLNVANSKLEKIIINAALDQTNGKKNEAAILLGLGRNTLAKKIKELG | -0.929
32 | HMSSWEEQLKIWAKNELASGNTDILARATVSFEQILIEAALTHTGGRKKTAAELLGWGRNTLTRKIKELHI | -0.743
33 | HMSSWEVLAEPIQTVMRRYGVPGAYEKLKEVTRGKSLTAEALHALIRSLDIPQADKERLLALTPAAWA | -0.393
34 | HMSSYAEVMERSKYLQLHKYKIWKSETDGFWRTYYLNEQGKRKMKKLKHSEDMIDFVIEYVQNNE | -1.06
35 | HMSTDDILSSITALRLASVQFQLGQFDPALDSLKLVKEQAWSGAKNILAGDIQLAKGDKEAAKASYQQAQQ | -0.542
36 | HMSTDIPFNIFSQKWNADEIDSIVVENNKIEGKTKDNKKFSTYAPDELLTSLMENHKNPNVIVEFRAP | -0.646
37 | HMSTDKIDIVSSAILSSLKDNDGFIGLTDKSPPPEIYTAFRVSKKVFKQAIGALYKQRRITLESSGIRLIS | -0.107
38 | HMSTDSTQLLGFNKTGEELPIYKEANEENKFAEIPQNVYVKNFGQNGEFTKIKYLDQEGYVKTAGLK | 0.199
39 | HMSTEEYDRGYEQGLEEAAKADDAWVANLIKIYSQNTPESMPETMKGRLDAFLYEQQRRAQSVPEM | -1.09
40 | HMSTIAAMADPRAWALEMLGFPPGTVKPSKREIQVRFRESLRDVHPDHGGDSRTASASINDLSEARRVLLS | 0.0192
41 | HMSTLGIRIKHYRTDSNLTQKELAGLINVKRDALANWETDRALPDVMNLKKLAEVFQVSTDELLQV | -0.225
42 | HMSTLTGTQRAAVVLMQMSPPNAARVMAQFTDAEAEEIAAEIVRLRKVDPEVAEQIMKDFHEAALSS | -0.645
43 | HMSTLTLTSGTYAVGENIKAGKYTIMGSGSIAISSSGKARVNSNLTADRKDYVLNDDETIKIKGKAQFIPI | 0.0425
44 | HMSTMKIVRVKSNLKIGQEITSKDIEVVEVGAYNMPSEVMKNSEDVIGKYASAEMIKGEYVLAAKISDTP | -0.902
45 | HMSTMNRLPRHEQILKLVRANGFMPIEELARLLDVTPQTIRRDINTLSEENLLRRFHGGAALGPSVE | 0.255
46 | HMSTMTGTVDTPGASLNVRTGAWGPIVGQLAHGSKVTIIGSSGDWFKISYNGATRYVHKNYVNTT | -0.0624
47 | HMSTMVEIPNVVGMTIKEAKEALGNLGLSISKISGSNEDSAIVTEVSPAPGSSVKRDESITLVGQPK | 0.12
48 | HMSTPAKVTPTNPIVKQLFNAAETQIKNKDIQNAIASYEKADTLTTDEKVKQYIHYQLSTLKDDN | 0.0384
49 | HMSTPERQEVLDILKRQGEMTPLQIAGQISRTSKSVSNILSKLKREGFVANGAKYGSWVSTES | 0.0778
50 | HMSTPTVDTKTKLDLYNLLYKKDLNYLDAYNFVLDNFGSDNIDIMFKMLGLDFTNWVIENKPE | 0.0493

Row | Sequence | soluble fraction (log2)
51 | HMSTQYKTGHYKTTDALNLRASYSTSSNVLLTIPKGKTIVVTRVHNNEWGQVEYNGKTGWIYLEYTAYTES | -0.387
52 | HMSTSAAELLRTARQQAGMSQSAVAELAKTSQSAIAMYEAGNREPSLPVLQRLLAATGHQLSLSVLP | 0.00437
53 | HMSTTILSFQNRVVIETLHNEGRSLRYIANYLGFSKATIFNELHRLNSEYRAELAQADFERKVSQR | -0.53
54 | HMSTVAETVYNEIRDDILYGELQPGVKLKLEALRERYSVGVNTLREVLNRLVASGFVFVEGQKGFRVV | -0.377
55 | HMSTVEKDSELGGNFRIASYPTGKGQISEAIRSMIVRAKQVGVNIRLNTEATEEPLRALAPNAVILATG | 0.18
56 | HMSTVELPVQINGKVRGRITVPANAGQEDVKQAALADSKVQRYIEGASIRKVIVVPRKLVNIVV | ≥ 0.43
57 | HMSTVTGLINYLSSGLIKGVGEATARKLVDHFGLDVLDIIQFNPQRLLEVDGIGEARAEMIASSFSEQK | -1.48
58 | HMSVDIIPGKADQKVRLIHDPAIVGVTTGGVKTAGPHTLIQIELGPNERPYKRLSLLELIPEG | 0.00535
59 | HMSVDVGMQLRKLREERKISMRELARLSGLSANALSMIERGLTSPSVSTLNKLAGALEVPITAFFRI | -0.00213
60 | HMSVEVPNLIGKTLDQVDIDLKSLDLSFVILDSARYNSSFKPLSVIDHQPISGAKVKVNRKIYLTINPS | -0.358
61 | HMSVKIELNENEQAIFTAVQKVNEAVLPELRAQFSDMSNKAWDNSVKMLTKNNLLKVSKEGEILYIRM | 0.0421
62 | HMSVKSVSLRKISYKVRRGDSLYNIAKNFSLSINDITHWNSINKKSYLQPGQRLTLYINPRN | 0.193
63 | HMSVKVFRDQILLNNDSDKMLQLSFSNLFGQKVLETSISPGKSAISTGNLPPGIYFITTSPATGVMRVII | -0.544
64 | HMSVLRLGNRGPDVRKLQLLLNSTLVPSPQLTVDGDFGKRTEQAVVTFQQMRGLPQDGIVGQRTWALLGQT | 0.241
65 | HMSVLSVASKNQAINPGQVVALLKDGIKLNDDGRVEILDNNNNIRYNEKGNLLSIEERVKEFLDANPHFRQ | -0.134
66 | HMSVLVLPMLKELTHEDREVVELFYLNDMSVREIALIISVPIGTVKSRLHRARAQLKHQIVNLNQ | -1.18
67 | HMSVPVNAPMPGTILDIKVKAGAAVKAGDVVMILEAMKMENEISAPQDGTIASIDVRKGDTVNSGDVLYTM | -0.00195
68 | HMSVSVNAPMPGNILDVRAKTGESIQKGQVIVILEAMKMENEIMAPQDGKISSINTSKGSTVNSGDLLFTM | -0.693
69 | HMSVTMPNLVGLDEQTAVTRINSSNLSYGSTNYVHSDHEAGVVFKQSTPAYTEVDEHTKIYIWVSLGPEE | -0.145
70 | HMSVTPLLDATEKDKTKYRDLWLVAVVKNGVNYARKYKFGYVYAWLYRHDRDWLLQVNNQHKIPNIT | -0.107
71 | HMSVTVMVLRAAGDIQAGTEITDKHLATVEVGEYGLPEGIINDKDSILGKIALTDIAKGDYFFSQKLG | -1.31
72 | HMSVVKPIYIGMMTSEVEAIMGKPFEVITNNNSKNNQLWIYKYQDKRSVMLTFTNYKLIKIE | -0.0356
73 | HMSWDNELLERAHKIIELYPQKRSALGPLLYLAQEKDGFISDDSIVEISNLVDITEVQVKSVSSFYSMY | -0.0573
74 | HMSWGDVKLTMWGAEEDQTMLREMADAFIEQNADKGNVTIEIGVQSESSAKDTVLADPESAADVFA | -0.106
75 | HMSWRWVPVSGAYTTSALEAAGLTRAFDDQAAAEEWLGLFFDDLLREGVGEVSLYEEDRLVYGPMSL | -2.33
